Reference: US20250388669A1 (published 2025)

T1: B7H3 (human, UniProt Q5ZPR3 29-466, limits assumed)
T1 construct: Tumor associated antigen; also called huB7H3
T1 sequence (looked up): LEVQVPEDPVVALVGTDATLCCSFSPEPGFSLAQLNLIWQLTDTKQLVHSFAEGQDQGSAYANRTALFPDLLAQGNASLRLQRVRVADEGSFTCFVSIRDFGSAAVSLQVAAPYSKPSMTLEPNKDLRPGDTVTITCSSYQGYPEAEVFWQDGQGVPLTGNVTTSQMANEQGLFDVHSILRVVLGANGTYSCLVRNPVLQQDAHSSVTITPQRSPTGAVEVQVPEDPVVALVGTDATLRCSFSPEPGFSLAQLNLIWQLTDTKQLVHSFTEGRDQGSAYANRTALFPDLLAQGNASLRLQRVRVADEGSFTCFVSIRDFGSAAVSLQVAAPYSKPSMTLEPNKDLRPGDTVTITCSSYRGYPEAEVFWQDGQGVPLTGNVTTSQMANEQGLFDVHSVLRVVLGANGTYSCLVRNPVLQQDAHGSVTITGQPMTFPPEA


Legend:
CD3 = CD3 (human); assay: CD3 binding, as described in Example 2 (ELISA or FCM)
CD3 (human), sequence (chain, as listed by the source): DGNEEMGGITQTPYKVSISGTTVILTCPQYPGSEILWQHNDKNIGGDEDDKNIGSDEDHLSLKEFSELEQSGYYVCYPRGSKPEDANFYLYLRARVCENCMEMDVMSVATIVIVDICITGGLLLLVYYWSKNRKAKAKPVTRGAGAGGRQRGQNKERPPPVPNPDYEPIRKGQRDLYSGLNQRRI

PD-1 (binding assay) = PD-1 (binding assay) (UniProt Q15116 25-167, limits assumed); assay: FCM or ELISA, graded
PD-1 (binding assay), sequence (Q15116 25-167 limits assumed): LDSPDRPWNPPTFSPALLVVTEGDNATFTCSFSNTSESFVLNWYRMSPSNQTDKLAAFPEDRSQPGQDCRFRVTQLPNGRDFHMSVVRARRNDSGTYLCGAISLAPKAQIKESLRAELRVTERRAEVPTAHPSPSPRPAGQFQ

B7H3 = target: T1, B7H3; assay: FCM or ELISA

Binder	EC50 (CD3)	also measured
Ly2278 (bispecific antibody, CD19 Fabs, central CD3 Fv) chain 1: QVQLQQSGAELVRPGSSVKISCKASGYAFSSYWMNWVKQRPGQGLEWIGQIWPGDGDTNYNGKFKGKATLTADESSSTAYMQLSSLASEDSAVYFCARRETTTVGRYYYAMDYWGQGTTVTVSSASTKGPSVFPLAPSSKSTSGGTAALGCLVKDYFPEPVTVSWNSGALTSGVHTFPAVLQSSGLYSLSSVVTVPSSSLGTQTYICNVNHKPSNTKVDKKVEPKSCGGGGSGGGGSGGGGSGGGGSEVQLVESGGGLVQPGGSLRLSCAASGFTFSTYAMNWVRQAPGKGLEWVGRIRSKYNNYATYYADSVKGRFTISRDDSKNSLYLQMNSLKTEDTAVYYCVRHGNFGNSYVSWFAYWGQGTLVTVSSGGGGSDKTHTCPPCPAPEAAGPSVFLFPPKPKDTLMISRTPEVTCVVVDVSHEDPEVKFNWYVDGVEVHNAKTKPREEQYNSTYRVVSVLTVLHQDWLNGKEYKCKVSNKALPAPIEKTISKAKGQPREPQVYTLPPSREEMTKNQVSLWCLVKGFYPSDIAVEWESNGQPENNYKTTPPVLDSDGSFFLYSKLTVDKSRWQQGNVFSCSVMHEALHNHYTQKSLSLSPG chain 2: QVQLQQSGAELVRPGSSVKISCKASGYAFSSYWMNWVKQRPGQGLEWIGQIWPGDGDTNYNGKFKGKATLTADESSSTAYMQLSSLASEDSAVYFCARRETTTVGRYYYAMDYWGQGTTVTVSSASTKGPSVFPLAPSSKSTSGGTAALGCLVKDYFPEPVTVSWNSGALTSGVHTFPAVLQSSGLYSLSSVVTVPSSSLGTQTYICNVNHKPSNTKVDKKVEPKSCGGGGSGGGGSGGGGSGGGGSQAVVTQEPSLTVSPGGTVTLTCRSSTGAVTTSNYANWVQQKPGQAPRGLIGGTNKRAPWTPARFSGSLLGGKAALTITGAQAEDEADYYCALWYSNLWVFGGGTKLTVLGGGGSDKTHTCPPCPAPEAAGPSVFLFPPKPKDTLMISRTPEVTCVVVDVSHEDPEVKFNWYVDGVEVHNAKTKPREEQYNSTYRVVSVLTVLHQDWLNGKEYKCKVSNKALPAPIEKTISKAKGQPREPQVYTLPPSREEMTKNQVSLSCAVKGFYPSDIAVEWESNGQPENNYKTTPPVLDSDGSFFLVSKLTVDKSRWQQGNVFSCSVMHEALHNRFTQKSLSLSPG light: not shown	1.46 µg/mL	
Ly305 (antibody, V domains shown, Parent mAb; also called Anti-CD3 Ly305; parent anti-CD3 mAb) VH: EVQLVESGGGLVQPGGSLRLSCAASGFTFSTYAMNWVRQAPGKGLEWVGRIRSKYNNYATYYADSVKGRFTISRDDSKNSLYLQMNSLKTEDTAVYYCVRHGNFGNSYVSWFAYWGQGTLVTVSS VL: QAVVTQEPSLTVSPGGTVTLTCRSSTGAVTTSNYANWVQQKPGQAPRGLIGGTNKRAPWTPARFSGSLLGGKAALTITGAQAEDEADYYCALWYSNLWVFGGGTKLTVL	0.03 µg/mL	
Ly2281 (bispecific antibody, PD-1 Fabs (Ly516) x central CD137 Fv) heavy 1: QVTLKESGPALVKPTQTLTLTCTFSGFSLSTSGTCVSWIRQPPGKALEWLATICWEDSKGYNPSLKSRLTISKDTSKNQAVLTMTNMDPVDTATYYCARREDSGYFWFPYWGQGTLVTVSSASTKGPSVFPLAPSSKSTSGGTAALGCLVKDYFPEPVTVSWNSGALTSGVHTFPAVLQSSGLYSLSSVVTVPSSSLGTQTYICNVNHKPSNTKVDKKVEPKSCGGGGSGGGGSGGGGSGGGGSQVQLVQSGAEVKKPGASVKVSCKASGYTFAGFEMHWVRQAPGQGLEWMGAIDPKTGGTDYNQKFKDRVTMTRDTSISTAYMELSRLRSDDTAVYYCARDLGYFDVWGQGTLVTVSSGGGGSDKTHTCPPCPAPEAAGPSVFLFPPKPKDTLMISRTPEVTCVVVDVSHEDPEVKFNWYVDGVEVHNAKTKPREEQYNSTYRVVSVLTVLHQDWLNGKEYKCKVSNKALPAPIEKTISKAKGQPREPQVYTLPPSREEMTKNQVSLWCLVKGFYPSDIAVEWESNGQPENNYKTTPPVLDSDGSFFLYSKLTVDKSRWQQGNVFSCSVMHEALHNHYTQKSLSLSPG heavy 2: QVTLKESGPALVKPTQTLTLTCTFSGFSLSTSGTCVSWIRQPPGKALEWLATICWEDSKGYNPSLKSRLTISKDTSKNQAVLTMTNMDPVDTATYYCARREDSGYFWFPYWGQGTLVTVSSASTKGPSVFPLAPSSKSTSGGTAALGCLVKDYFPEPVTVSWNSGALTSGVHTFPAVLQSSGLYSLSSVVTVPSSSLGTQTYICNVNHKPSNTKVDKKVEPKSCGGGGSGGGGSGGGGSGGGGSDIQMTQSPSSLSASVGDRVTITCRASQDIRSNLNWYQQKPGGAVKLLIYYTSRLHSGVPSRFSGSGSGTDYTLTISSLQPEDFATYFCQQSEKLPRTFGGGTKVEIRGGGGSDKTHTCPPCPAPEAAGPSVFLFPPKPKDTLMISRTPEVTCVVVDVSHEDPEVKFNWYVDGVEVHNAKTKPREEQYNSTYRVVSVLTVLHQDWLNGKEYKCKVSNKALPAPIEKTISKAKGQPREPQVYTLPPSREEMTKNQVSLSCAVKGFYPSDIAVEWESNGQPENNYKTTPPVLDSDGSFFLVSKLTVDKSRWQQGNVFSCSVMHEALHNRFTQKSLSLSPG light: NIQMTQSPSSLSASVGDRVTITCKAGQNVNNYLAWYQQKPGKAPKVLIFNANSLQTGVPSRFSGSGSGTDFTLTISSLQPEDFATYYCQQYNSWPTFGGGTKVEIKRTVAAPSVFIFPPSDEQLKSGTASVVCLLNNFYPREAKVQWKVDNALQSGNSQESVTEQDSKDSTYSLSSTLTLSKADYEKHKVYACEVTHQGLSSPVTKSFNRGEC		binding result (PD-1 (binding assay)): binds
Ly1965 (bispecific antibody, B7H3 Fabs, central CD3 Fv) chain 1: QVQLVQSGAEVKKPGASVKVSCKASGYTFTSYVMHWVRQKPGQGLEWIGYINPYNEGTESTDKFKGRATMTSDKSTSTVYMELSSLRSEDTAVYYCASIYYGYEGTYFGVWGQGTLVTVSSASTKGPSVFPLAPSSKSTSGGTAALGCLVKDYFPEPVTVSWNSGALTSGVHTFPAVLQSSGLYSLSSVVTVPSSSLGTQTYICNVNHKPSNTKVDKKVEPKSCGGGGSGGGGSGGGGSGGGGSEVQLVESGGGLVQPGGSLRLSCAASGFTFSTYAMNWVRQAPGKGLEWVGRIRSKYNNYATYYADSVKGRFTISRDDSKNSLYLQMNSLKTEDTAVYYCVRHGNFGNSYVSWFAYWGQGTLVTVSSGGGGSDKTHTCPPCPAPEAAGPSVFLFPPKPKDTLMISRTPEVTCVVVDVSHEDPEVKFNWYVDGVEVHNAKTKPREEQYNSTYRVVSVLTVLHQDWLNGKEYKCKVSNKALPAPIEKTISKAKGQPREPQVYTLPPSREEMTKNQVSLWCLVKGFYPSDIAVEWESNGQPENNYKTTPPVLDSDGSFFLYSKLTVDKSRWQQGNVFSCSVMHEALHNHYTQKSLSLSPG chain 2: QVQLVQSGAEVKKPGASVKVSCKASGYTFTSYVMHWVRQKPGQGLEWIGYINPYNEGTESTDKFKGRATMTSDKSTSTVYMELSSLRSEDTAVYYCASIYYGYEGTYFGVWGQGTLVTVSSASTKGPSVFPLAPSSKSTSGGTAALGCLVKDYFPEPVTVSWNSGALTSGVHTFPAVLQSSGLYSLSSVVTVPSSSLGTQTYICNVNHKPSNTKVDKKVEPKSCGGGGSGGGGSGGGGSGGGGSQAVVTQEPSLTVSPGGTVTLTCRSSTGAVTTSNYANWVQQKPGQAPRGLIGGTNKRAPWTPARFSGSLLGGKAALTITGAQAEDEADYYCALWYSNLWVFGGGTKLTVLGGGGSDKTHTCPPCPAPEAAGPSVFLFPPKPKDTLMISRTPEVTCVVVDVSHEDPEVKFNWYVDGVEVHNAKTKPREEQYNSTYRVVSVLTVLHQDWLNGKEYKCKVSNKALPAPIEKTISKAKGQPREPQVYTLPPSREEMTKNQVSLSCAVKGFYPSDIAVEWESNGQPENNYKTTPPVLDSDGSFFLVSKLTVDKSRWQQGNVFSCSVMHEALHNRFTQKSLSLSPG light: EIVLTQSPATLSLSPGERATLSCRASSSVSYMHWYQQKPGQAPRPWIYATSNLASGIPARFSGSRSGTDYTLTISSLEPEDFAVYYCQQWSSNTLTFGGGTKVEIKRTVAAPSVFIFPPSDEQLKSGTASVVCLLNNFYPREAKVQWKVDNALQSGNSQESVTEQDSKDSTYSLSSTLTLSKADYEKHKVYACEVTHQGLSSPVTKSFNRGEC	0.419 µg/mL	
Ly2434 (bispecific antibody, human IgG1, kappa, B7H3/CD40: two B7H3 Fabs, terminal CD40 Fv (TM559)) chain 1: QVQLVQSGAEVKKPGASVKVSCKASGYTFTSYVMHWVRQKPGQGLEWIGYINPYNEGTESTDKFKGRATMTSDKSTSTVYMELSSLRSEDTAVYYCASIYYGYEGTYFGVWGQGTLVTVSSASTKGPSVFPLAPSSKSTSGGTAALGCLVKDYFPEPVTVSWNSGALTSGVHTFPAVLQSSGLYSLSSVVTVPSSSLGTQTYICNVNHKPSNTKVDKKVEPKSCDKTHTCPPCPAPEAAGPSVFLFPPKPKDTLMISRTPEVTCVVVDVSHEDPEVKFNWYVDGVEVHNAKTKPREEQYNSTYRVVSVLTVLHQDWLNGKEYKCKVSNKALPAPIEKTISKAKGQPREPQVYTLPPSREEMTKNQVSLWCLVKGFYPSDIAVEWESNGQPENNYKTTPPVLDSDGSFFLYSKLTVDKSRWQQGNVFSCSVMHEALHNHYTQKSLSLSPGGGGGSGGGGSGGGGSGGGGSEVQLVESGGGLVQPGGSLRLSCAASGFTFTNYGLHWVRQAPGKGLEWVSSISPSGGVTYYRDSVKGRFTISRDNSKNTLYLQMNSLRAEDTAVYYCAKPFLGWGGANWIAHWGQGTLVTVSS chain 2: QVQLVQSGAEVKKPGASVKVSCKASGYTFTSYVMHWVRQKPGQGLEWIGYINPYNEGTESTDKFKGRATMTSDKSTSTVYMELSSLRSEDTAVYYCASIYYGYEGTYFGVWGQGTLVTVSSASTKGPSVFPLAPSSKSTSGGTAALGCLVKDYFPEPVTVSWNSGALTSGVHTFPAVLQSSGLYSLSSVVTVPSSSLGTQTYICNVNHKPSNTKVDKKVEPKSCDKTHTCPPCPAPEAAGPSVFLFPPKPKDTLMISRTPEVTCVVVDVSHEDPEVKFNWYVDGVEVHNAKTKPREEQYNSTYRVVSVLTVLHQDWLNGKEYKCKVSNKALPAPIEKTISKAKGQPREPQVYTLPPSREEMTKNQVSLSCAVKGFYPSDIAVEWESNGQPENNYKTTPPVLDSDGSFFLVSKLTVDKSRWQQGNVFSCSVMHEALHNRFTQKSLSLSPGGGGGSGGGGSGGGGSGGGGSDIQMTQSPSSLSASVGDRVTITCLASEDISNDLAWYQQKPGKAPKLLIYFVDRLLDGVPSRFSGSGSGTDFTLTISSLQPEDFATYYCQQSYKYPPTFGQGTKLEIK light: EIVLTQSPATLSLSPGERATLSCRASSSVSYMHWYQQKPGQAPRPWIYATSNLASGIPARFSGSRSGTDYTLTISSLEPEDFAVYYCQQWSSNTLTFGGGTKVEIKRTVAAPSVFIFPPSDEQLKSGTASVVCLLNNFYPREAKVQWKVDNALQSGNSQESVTEQDSKDSTYSLSSTLTLSKADYEKHKVYACEVTHQGLSSPVTKSFNRGEC		binding result (B7H3): binds
